Experimental data reported in patent US20170202908A1 (ASAHI GROUP, published 2017).

Target: T1, Fc-mUmod, fusion protein of the mouse Umod protein (positions 1-616 of SEQ ID NO: 8) and the Fc domain of … (mouse; human, UniProt Q91X17 25-616)
T1 construct: Secreted from HEK293T cells, purified on protein A and immobilized on a 96-well plate; Positions 1-616 are the cloned range and start at the initiator Met; also called uromodulin; not shown: Fc domain of human IgG1
Experiment: whole bacterial cells on plate-immobilized Fc-mUmod; bound cells counted by 16S rRNA real-time PCR, hIgG background subtracted
Method: Next, the Fc-mUmod protein and hIgG as a control Fc protein were respectively diluted with PBS so as to result in a concentration of 5 μg/ml, and the resultants were applied to a 96-well plate (50 μl per well) and immobilized at 4° C. overnight. Each well was washed three times with 200 μl of PBS. Then, a 1% BSA/PBS solution (200 μl) was applied thereto for blocking at room temperature for 2 hours. Then, the blocking solution was removed. Thereafter, bacterial cells of each test lactic acid bacterium, which had been suspended in PBS so as to result in a concentration of 10⁶ cells/50 μl, were applied thereto (50 μl per well) and incubated at room temperature for 2 hours. Each well was washed five times with 200 μl of PBS and then PBS was completely removed.
DNA was extracted from bacterial cells bound to each plate using NucleoSpin™ Tissue (Takara) in accordance with the provided protocol. Real-time PCR was performed using the extracted DNA as a template and universal primers targeting the 16S rRNA gene (F: 5′-[…]-3′ (SEQ ID NO: 12), R: 5′-[…]-3′ (SEQ ID NO: 13)). The number of bacterial cells bound to Fc-mUmod and the number of bacterial cells bound to hIgG were quantitatively determined in accordance with the protocol provided with SYBR™ Premix Ex Taq™ II (Tli RNaseH Plus) (Takara).

T1 sequence (Q91X17 25-616): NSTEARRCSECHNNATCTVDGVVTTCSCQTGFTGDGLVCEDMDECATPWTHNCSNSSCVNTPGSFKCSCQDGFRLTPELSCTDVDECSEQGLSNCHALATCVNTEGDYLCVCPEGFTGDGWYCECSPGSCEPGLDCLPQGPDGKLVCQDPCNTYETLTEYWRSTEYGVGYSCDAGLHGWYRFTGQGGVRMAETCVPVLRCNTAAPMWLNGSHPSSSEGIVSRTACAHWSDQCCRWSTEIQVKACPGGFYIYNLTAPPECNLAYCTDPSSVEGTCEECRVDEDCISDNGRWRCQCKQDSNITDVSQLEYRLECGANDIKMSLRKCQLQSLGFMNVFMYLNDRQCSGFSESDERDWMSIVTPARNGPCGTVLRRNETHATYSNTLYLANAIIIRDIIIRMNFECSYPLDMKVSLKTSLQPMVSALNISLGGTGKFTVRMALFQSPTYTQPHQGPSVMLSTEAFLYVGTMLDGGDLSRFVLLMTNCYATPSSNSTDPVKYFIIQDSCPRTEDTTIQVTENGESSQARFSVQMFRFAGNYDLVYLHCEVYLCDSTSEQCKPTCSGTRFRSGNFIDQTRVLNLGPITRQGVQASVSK

B1: S-layer protein A (SlpA protein) of the Lactobacillus acidophilus strain L-92 (other)
chain: AVSTVSAATTINASSSAINTNTNAKYDVDVTPSVSAVAANTANNTPAIAGNLTGTISASYNGKTYTANLKADTENATITAAGSTTAVKPAELAAGVAYTVTVNDVSFNFGSENAGKTVTLGSANSNVKFTGTNSDNQTETNVSTLKVKLDQNGVASLTNVSIANVYAINTTDNSNVNFYDVTSGATVTNGAVSVNADNQGQVNVANVVAAINSKYFAAQYADKKLNTRTANTEDAIKAALKDQKIDVNSVGYFKAPHTFTVNVKATSNTNGKSATLPVVVTVPNVAEPTVASVSKRIMHNAYYYDKDAKRVGTDSVKRYNSVSVLPNTTTINGKTYYQVVENGKAVDKYINAANIDGTKRTLKHNAYVYASSKKRANKVVLKKGEVVTTYGASYTFKNGQKYYKIGDNTDKTYVKVANFR
notes: In the assays SlpA stood on the surface of whole L-92 bacterial cells, not as an isolated protein; also called surface layer protein (SlpA)
binding result: binds
